Residue numbers refer to the chain shown, from its start. In names and notes the source's numbering stands. Several values for one entry are separate records, joined by “and”; a condition that tells them apart may be missing. Equal values may be shown once.
B1: wild-type phospholamban (natural protein, dog, UniProt P61012 1-52, looked up)
chain: MDKVQYLTRSAIRRASTIEMPQQARQNLQNLFINFCLILICLLLICIIVMLL
B2: C41L-PLB (natural protein, dog, UniProt P61012 1-52, looked up)
chain: B1 chain with C41L
B3: I38A mutant of C41L-PLB (natural protein, dog, UniProt P61012 1-52, looked up)
chain: B1 chain with I38A, C41L
B4: L39A mutant of C41L-PLB (natural protein, dog, UniProt P61012 1-52, looked up)
chain: B1 chain with L39A, C41L
B5: L42A mutant of C41L-PLB (natural protein, dog, UniProt P61012 1-52, looked up)
chain: B1 chain with C41L, L42A
B6: I48A mutant of C41L-PLB (natural protein, dog, UniProt P61012 1-52, looked up)
chain: B1 chain with C41L, I48A

Experiments:
[1] = molecular target: the molecule itself; assay: SDS-PAGE oligomerization assay
[2] = molecular target: the molecule itself; assay: SDS-PAGE oligomerization assay with immunoblot
[3] = molecular target: the molecule itself; assay: SDS-PAGE oligomerization assay; remark: listed apart in the source

| Protein | stoichiometry N [1] | stoichiometry N [2] | stoichiometry N [3] |
| --- | --- | --- | --- |
| B1 | 5 | 2 and 4 and ~6 | > 6 |
| B2 | – | 4 | – |
| B3 | – | 4 | – |
| B4 | – | 4 | – |
| B5 | – | 4 | – |
| B6 | – | 5 | – |
